Measurements taken from a protein production outcome set (Wang et al. 2014).

Assay: label from the status in PepcDB records

Sequence	protein production
MTVETFHPKQTTTLETPAKTLEAASADSVNTGNVATGNRIGFVSLGCPKNLVDSERILTQLRIDGYEVTNSYDNADLVIVNTCGFIDAAVEESLDAVREALEENGKVIVTGCLGAKENQIREVHPDVLEITGPHSYEAVLKHVHKYVPKPEHNPFTSLIPQTGVKLTPKHYAYLKISEGCDNRCTFCIIPALRGDLDSRGAGSVLDEAKRLVEAGVQEILVVSQDTSAYGKDKGGRTDFWNGMPVKQDITSLARQLGKMGAWVRLHYIYPYPWVDDLIPLMAEGLILPYLDIPMQHASPRILKMMKRPGRVDRQLEAIQRWREICPDLVIRSTFIVGFPGETEEDFEMLLDFLREARLDRVGCFKYSEVEGAVANTIAELISEEVKEDRYHRFMEVQAEISAERLARFVGRTMDILIDDVDEEGAIGRSFADAPEIDGMVFINGETELEPGMLVRAVITHSDEHDLWAELVDADAEDEVEALEHHHHHH	not failed
MTVKAVFFDIDGTLLNDRKNIQKTTQKAIQQLKKQGIMVGLATGRGPGFVQPFLENFGLDFAVTYNGQYILTRDKVLYQNQLPKSMIYKVIRYANEKKREISLGTASGLAGSRIIDMGTSPFGQVISSFVPKSWARTVEGSFKHLIRRIKPQSFRNLVTIMREPIYQVVLVASQAETKKIQEKFPHIKITRSSPYSLDLISVDQSKIKGIERLGEMFGFDLSEVMAFGDSDNDLEMLSGVGIGIAMGNAETVVKDGAHFTTDSNNNDGISKALAHYGLIH	failed
MTVQSGELRPNLIALKTIVYREVHRFMRIWPQTLLPPAITMVLYFVIFGNLIGRQIGDMGSFTYMQYIVPGLIMMSVITNSYGNVVSSFFGAKFQHSIEELMVSPVSPHTILIGYTLGGVLRGLMVGFIVTMLSMFFTDLQVHHLGVTIVVVVLTATIFSLLGFINAVFARNFDDISIIPTFVLTPLTYLGGVFYSINLLPPFWQTVSLANPVLHMVNAFRYGILGVSDIKISIALAFMIVATFVLYFGCARLLVSGRGMRQ	failed
MTVRYFAAAAAAAGIETESLEIATGTSVAELVERLGARNPELARVLKRCSYLCDEVAVRDMAKPLVTPQTVDVLPPFAGGLEHHHHHH	failed
MTVTAPNALNFECETGNYHTFCPISCVAWLYQKIEDSFFLVIGTKTCGYFLQNAMGVMIFAEPRYAMAELEEGDISAQLNDYEELKRLCLEIKRDRNPSVIVWIGTCTTEIIKMDLEGLAPKLEAEIGIPIVVARANGLDYAFTQGEDTVLAAMAARCPTSTAISDPEERNPIQRLLNFGKKKEEVQAQSSQYHPHPPLVLFGSLPDPVVTQLTLELKKQGIKVSGWLPAKRYTELPVIDEGYYVAGVNPFLSRTATTLIRRRKCQLITAPFPIGPDGTRTWIEQICATFGIQPQGLAEREAETWQKLSDYLELVRGKSVFFMGDNLLEISLARFLIRCGMRVLEIGIPYMDKRYQAAELALLSQTCAEMGHPLPTIVEKPDNYNQLQRIKALQPDLVITGMAHANPLEARGISTKWSVEFTFAQIHGFGNARDILELVTRPLRRNQALAGLGWQKLVAH	not failed
MTVTNMTEWFAKGVEALHHDHVYLARACFEQAVTEQRSPLSSSYLALCQAKTRGTFSDAIASAREAVAADPANPALYHNLGCIYLLAGKRTEAIETFRQGLRVGLEHHHHHH	not failed
MTVVSVDKDVEALSFSIVAEFDADVKRVWAIWEDPRQLERWWGPPTWPATFETHEFTVGGKAAYYMTGPDGTKARGWWQFTTIEAPDHLEFDDGFADEHGAPVDELGVTHATVKLEPLENRTRMTIISTFESEEQMQKMAEMGMEEGMREAIEQIDAVLSEPANALEHHHHHH	not failed
